In patent US20140113288, “METHODS OF IDENTIFYING RISK OF PREECLAMPSIA AND PREGNANCY-RELATED DISORDERS” (Academia Sinica, published 2014):
Substitutions are numbered along the chain they refer to.

B1: HtrA4-GBS probe (dsDNA)
DNA 1: GTGAGCTTTCTTATCAGTCTGCCCTCATTGTCGGTTTT
DNA 2: AAAACCGACAATGAGGGCAGACTGATAAGAAAGCTCAC
B2: HtrA4-GBSmt probe (dsDNA)
DNA 1: B1 DNA 1 with C22A, C23A, C26A, A27C
DNA 2: B1 DNA 2 with T12G, G13T, G16T, G17T

Legend:
[1] = target: T1, GCM1 (GCMa) (Homo sapiens, UniProt Q9NP62 Q9NP62:1-436); assay: EMSA; supershifted by anti-GCM1 antibody; 5% non-denaturing gel; conditions: tags: C-terminal FLAG (GCM1-FLAG); label: radiolabel
T1 sequence: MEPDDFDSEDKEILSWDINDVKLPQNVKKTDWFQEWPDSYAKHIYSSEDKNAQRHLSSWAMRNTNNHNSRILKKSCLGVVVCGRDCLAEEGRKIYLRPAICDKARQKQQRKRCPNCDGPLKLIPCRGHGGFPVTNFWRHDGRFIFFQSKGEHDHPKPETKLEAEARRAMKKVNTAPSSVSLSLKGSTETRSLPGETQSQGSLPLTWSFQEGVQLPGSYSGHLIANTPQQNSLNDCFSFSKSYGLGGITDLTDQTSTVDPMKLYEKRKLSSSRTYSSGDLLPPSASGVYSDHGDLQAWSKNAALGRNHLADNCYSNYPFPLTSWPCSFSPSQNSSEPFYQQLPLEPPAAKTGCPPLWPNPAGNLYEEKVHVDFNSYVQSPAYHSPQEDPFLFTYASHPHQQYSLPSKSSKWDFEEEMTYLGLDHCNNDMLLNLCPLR
Procedure: (§1) BeWo cells stably expressing HA-GCM1 (BeWo31) (36) were treated with or without 50 μM forskolin for 24 hours before being subjected to ChIP assay using normal mouse serum or HA mAb (Sigma, St. Louis, Mo.). The immunopurified genomic fragments were amplified by ligation-mediated PCR and the resulting amplicons were fragmented and labeled with terminal labeling kit (Affymetrix, Santa Clara, Calif.) according to the manufacturer's instructions. The chips of Human promoter 1.0R array (Affymetrix) were hybridized with the labeled amplicons, followed by data analysis using the Partek software package (St. Louis, Mo.). Furthermore, RefSeq mapping data were collected from the UCSC Genome Browser's RefFlat table (The UCSC genome browser database: update 2007). The closest RefSeq 5′ end for each ChIP region was identified, regardless of whether the cluster was upstream or downstream of the 5′ end. The primer sequences for ChIP analysis of the interaction between GCM1 and HtrA4-GBS in BeWo cells are 5′-[…]-3′ (SEQ ID NO:4) and 5′-GTCTCTAGCC CTACCCG-3′ (SEQ ID NO:5). On the other hand, analysis of direct interaction between GCM1 and HtrA4-GBS was performed by electrophoretic mobility shift assay (EMSA) as previously described (22). […] The reaction mixtures were analyzed by electrophoresis on 5% non-denaturing polyacrylamide gels. […]

[2] = target: T1, GCM1 (GCMa); assay: EMSA; GBS mutated; conditions: tags: C-terminal FLAG (GCM1-FLAG); label: radiolabel
Procedure: as §1

| Binder | binding result [1] | binding result [2] |
| --- | --- | --- |
| B1 | binds | – |
| B2 | – | no binding |
